Results as given in PMC4766841.

Target: CIB1N-DBD (CIB1N (1-170) fused to the Gal4 DNA binding domain) (Arabidopsis thaliana) (UniProt Q8GY61)
Assay: two-hybrid

Sequence of UniProt Q8GY61 (Q8GY61 1-170): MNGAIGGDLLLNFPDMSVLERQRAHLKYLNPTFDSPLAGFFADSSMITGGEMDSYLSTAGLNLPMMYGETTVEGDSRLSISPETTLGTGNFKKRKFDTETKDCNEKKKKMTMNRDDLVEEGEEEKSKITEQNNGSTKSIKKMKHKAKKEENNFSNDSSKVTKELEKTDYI

Substance: CRY2PHR-AD (CRY2PHR fused to the Gal4 activation domain) (from UniProt Q96524 1-498) (domain or fragment)
- β-Gal Light: 47.1
